Assay results as given in patent US12527876B2, “Insulin-like growth factor-chemotherapeutic conjugate for treating myelodysplastic syndrome” (IGF Oncology, LLC, priority 2017, dated 2026).

Assays:
[1] = target: T1, type 1 IGF receptors (IGF-1R) on MCF7 cells (Homo sapiens, UniProt P08069); experiment: Competition binding assay to IGF-1 receptor on MCF7 cells versus I-125-labeled IGF-1; settings: FIG. 1 assay
T1 construct: type 1 IGF receptors that are abundant on MCF7 cells; host or cells: MCF7
Description: Theory of assay: Radioactive ^125I labeled insulin-like growth factor-1 (IGF-1) competes with a test ligand for binding to type 1 IGF receptors that are abundant on MCF7 cells (a human breast cancer cell line) in vitro.
MCF7 cell media: 500 mL MEM, 0.01 mg/mL bovine insulin; 5 mL sodium pyruvate, 5 mL non-essential amino acids, 10 mL sodium bicarbonate, 10 mL fetal bovine serum, 5 mL penicillin/streptomycin.
MCF7 cells (ATCC HTB-22) were plated at 20,000 cells per well in a volume of 0.5 mL/well in a 48-well tissue culture plate (flat bottom with low evaporation lid) and placed in a cell culture incubator set at 37° C. with 5% CO2. After 2-3 days in culture the plates were washed 2× with 0.5 mL per well of cold binding assay buffer (100 mM Hepes-NaOH, pH 7.2; 120 mM NaCl; 5 mM KCl; 1.2 mM MgSO4; 0.1% BSA). After the final wash, 0.5 mL of binding assay buffer was added to each well and the plates are placed at 4° C. for 2 to 6 hours.
Test ligands were prepared at a concentration of 10 micromolar (long-R3-IGF) or 20 micromolar (765IGF and IGF-MTX) in 5 mM HCl in a volume of 200 ul. […] For long-R3, the lyophilized commercial material is dissolved at 1.0 mg/ml in 10 mM HCl and this is diluted to a concentration of 91 ug/ml for a 10 uM solution. […]
The plates were then incubated overnight at 4° C. […] Cells were lysed with 0.5 mL 300 mM NaOH, 1% SDS and the lysates were counted on a gamma counter.

[2] = tested on: soluble IGF binding proteins; settings: compared to wild-type IGF-1; Francis 1992, Tomas 1993, U.S. Pat. No. 4,876,242; cited from earlier work
IGF receptors = IGF receptors (Homo sapiens, UniProt P08069); experiment: Competition binding of refolded IGF fusion proteins to IGF receptors against radioactive wild type IGF (Example 2); settings: refolded 3 hours at room temperature, read-out: approximate binding constants (KDs)
Description: 2 ml of each of the original Ni eluates from Example 1 was mixed with about an equal volume of 100 mM glycine, 6 M urea, pH 9.5, concentrated by ultrafiltration in a CENTRICON 3 kDa filter unit, then brought up again in that buffer and concentrated to about 420 ul. Then they were diluted to 2 mg/ml for 403IGF, 764IGF, and 765IGF, and 4 mg/ml for 784IGF and 2.4 mg/ml for 785IGF.
200 ul of each of these was mixed rapidly with 1.8 ml of refold buffer. Refold buffer was 1.4 M urea, 100 mM glycine, 0.5 M NaCl, 19% ethanol, 0.5 mM GSSG, 4 mM GSH, pH 9.5. They were refolded at room temperature for 3 hours, and then tested in a binding assay for competition binding to IGF receptors against […] radioactive wild type IGF (Perkin Elmer, Inc.) For comparison, commercial Long-R3-IGF (LR3IGF) was also tested.

Sequence of IGF receptors (P08069 31-736 limits assumed): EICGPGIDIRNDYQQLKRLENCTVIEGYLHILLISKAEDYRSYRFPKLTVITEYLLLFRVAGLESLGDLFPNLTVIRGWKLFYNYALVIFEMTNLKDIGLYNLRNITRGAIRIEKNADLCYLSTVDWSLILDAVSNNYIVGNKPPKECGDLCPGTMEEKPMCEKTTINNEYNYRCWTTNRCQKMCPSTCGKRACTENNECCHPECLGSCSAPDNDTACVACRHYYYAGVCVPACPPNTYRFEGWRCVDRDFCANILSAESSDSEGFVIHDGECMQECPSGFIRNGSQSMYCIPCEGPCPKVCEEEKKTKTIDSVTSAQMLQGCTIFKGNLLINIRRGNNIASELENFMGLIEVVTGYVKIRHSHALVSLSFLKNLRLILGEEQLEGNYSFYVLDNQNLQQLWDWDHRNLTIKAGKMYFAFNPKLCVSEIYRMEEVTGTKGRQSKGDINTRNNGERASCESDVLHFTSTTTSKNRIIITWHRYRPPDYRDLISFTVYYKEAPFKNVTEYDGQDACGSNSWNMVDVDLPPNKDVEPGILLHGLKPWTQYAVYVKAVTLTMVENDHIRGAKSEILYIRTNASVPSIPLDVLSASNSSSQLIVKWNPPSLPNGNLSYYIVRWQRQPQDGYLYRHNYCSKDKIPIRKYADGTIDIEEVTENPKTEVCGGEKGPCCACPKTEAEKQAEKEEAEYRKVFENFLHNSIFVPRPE
Sequence of IGF receptors (P08069 741-1367 partner limits assumed): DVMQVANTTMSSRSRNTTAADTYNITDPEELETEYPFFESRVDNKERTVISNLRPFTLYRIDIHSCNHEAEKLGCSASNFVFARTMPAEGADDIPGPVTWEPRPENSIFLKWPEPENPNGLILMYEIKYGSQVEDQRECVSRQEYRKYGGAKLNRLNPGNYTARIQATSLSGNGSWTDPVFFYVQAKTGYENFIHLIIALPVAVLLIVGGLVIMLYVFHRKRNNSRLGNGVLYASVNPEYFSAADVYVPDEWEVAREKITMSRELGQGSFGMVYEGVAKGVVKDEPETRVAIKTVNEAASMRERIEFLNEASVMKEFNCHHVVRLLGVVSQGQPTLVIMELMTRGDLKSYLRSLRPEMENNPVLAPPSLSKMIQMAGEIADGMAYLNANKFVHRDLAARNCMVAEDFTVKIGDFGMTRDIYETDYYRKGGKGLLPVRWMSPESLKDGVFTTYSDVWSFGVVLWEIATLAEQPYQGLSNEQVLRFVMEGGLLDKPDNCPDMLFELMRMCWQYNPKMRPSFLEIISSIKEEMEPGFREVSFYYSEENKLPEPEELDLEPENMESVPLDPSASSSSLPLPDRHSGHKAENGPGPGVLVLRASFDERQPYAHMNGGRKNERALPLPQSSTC
T1 sequence (P08069 31-736 limits assumed): as the sequence (P08069 31-736 limits assumed) above
T1 sequence (P08069 741-1367 partner limits assumed): as the sequence (P08069 741-1367 partner limits assumed) above

B1: LR3IGF: commercial Long-R3-IGF, variant of IGF-1, SEQ ID NO: 5 (protein)
chain: MFPAMPLSSLFVNGPRTLCGALVDALQFVCGDRGFYFNKPTGYGSSSRRAPQTGIVDECCFRSCDLRRLEMYCAPLKPAKSEA
Kd [1]: ~3 nM | binding affinity to the soluble IGF binding proteins [2]: reduced binding affinity | Kd (IGF receptors): ~1 nM
